Reference: US20240010751A1 (EXELIXIS, published 2024)

B1: C40 x P24 bispecific antibody in a BC1 format (bispecific antibody)
chain 1: not shown
chain 2: EVQLVESGGGLVQPGGSLRLSCAASGFTFSYYYIHWVRQAPGKGLEWVAWIDPYGHSTTYADSVKGRFTISADTSKNTAYLQMNSLRAEDTAVYYCARGGRGAMDYWGQGTLVTVSSASPREPQVYTDPPSRDELTKNQVSLTCLVKGFYPSDIAVEWESNGQPENNYKTTPPVLDSDGSFFLYSKLTVDKSRWQQGNVFSCSVMHEALHNHYTQKSLSLSGEC
chain 3: DIQMTQSPSSLSASVGDRVTITCRASQSVSSAVAWYQQKPGKAPKLLIYSASSLYSGVPSRFSGSRSGTDFTLTISSLQPEDFATYYCQQVSYSPYTFGQGTKVEIKRTVAAPSVFIFPPSDEQLKSGTASVVCLLNNFYPREAKVQWKVDNALQSGNSQESVTEQDSKDSTYSLSSTLTLSKADYEKHKVYACEVTHQGLSSPVTKSFNRGECDKTHTCPPCPAPELLGGPSVFLFPPKPKDTLMISRTPEVTCVVVDVSHEDPEVKFNWYVDGVEVHNAKTKPREEQYNSTYRVVSVLTVLHQDWLNGKEYKCKVSNKALPAPIEKTISKAKGQPREPQVCTLPPSREEMTKNQVSLSCAVKGFYPSDIAVEWESNGQPENNYKTTPPVLDSDGSFFLVSKLTVDKSRWQQGNVFSCSVMHEALHNHYTQKSLSLSPGK
chain 4: EVQLVESGGGLVQPGGSLRLSCAASGFTFDQYYIHWVRQAPGKGLEWVAEIYPAGSYTYYADSVKGRFTISADTSKNTAYLQMNSLRAEDTAVYYCARGPYSVRYALDYWGQGTLVTVSSASTKGPSVFPLAPSSKSTSGGTAALGCLVKDYFPEPVTVSWNSGALTSGVHTFPAVLQSSGLYSLSSVVTVPSSSLGTQTYICNVNHKPSNTKVDKKVEPPKSC
notes: B-Body of four polypeptide chains, BC1 format; CD47 arm from C40, PD-L1 arm from P24; also called C40 × P24
B2: C56 x P22 bispecific antibody in a BC1 format (bispecific antibody)
chain 1: not shown
chain 2: EVQLVESGGGLVQPGGSLRLSCAASGFTFTYYYIHWVRQAPGKGLEWVAFIDPYSGSTEYADSVKGRFTISADTSKNTAYLQMNSLRAEDTAVYYCARGGLYALDYWGQGTLVTVSSASPREPQVYTDPPSRDELTKNQVSLTCLVKGFYPSDIAVEWESNGQPENNYKTTPPVLDSDGSFFLYSKLTVDKSRWQQGNVFSCSVMHEALHNHYTQKSLSLSGEC
chain 3: DIQMTQSPSSLSASVGDRVTITCRASQSVSSAVAWYQQKPGKAPKLLIYSASSLYSGVPSRFSGSRSGTDFTLTISSLQPEDFATYYCQQYYTSPYTFGQGTKVEIKRTVAAPSVFIFPPSDEQLKSGTASVVCLLNNFYPREAKVQWKVDNALQSGNSQESVTEQDSKDSTYSLSSTLTLSKADYEKHKVYACEVTHQGLSSPVTKSFNRGECDKTHTCPPCPAPELLGGPSVFLFPPKPKDTLMISRTPEVTCVVVDVSHEDPEVKFNWYVDGVEVHNAKTKPREEQYNSTYRVVSVLTVLHQDWLNGKEYKCKVSNKALPAPIEKTISKAKGQPREPQVCTLPPSREEMTKNQVSLSCAVKGFYPSDIAVEWESNGQPENNYKTTPPVLDSDGSFFLVSKLTVDKSRWQQGNVFSCSVMHEALHNHYTQKSLSLSPGK
chain 4: EVQLVESGGGLVQPGGSLRLSCAASGFTFSSYYIHWVRQAPGKGLEWVAWITSHGYSTKYADSVKGRFTISADTSKNTAYLQMNSLRAEDTAVYYCARDSVIYGLDYWGQGTLVTVSSASTKGPSVFPLAPSSKSTSGGTAALGCLVKDYFPEPVTVSWNSGALTSGVHTFPAVLQSSGLYSLSSVVTVPSSSLGTQTYICNVNHKPSNTKVDKKVEPPKSC
notes: B-Body of four polypeptide chains, BC1 format; CD47 arm from C56, PD-L1 arm from P22; also called C56 × P22
B3: C40 x P31.2 bispecific antibody in a BC44 format (bispecific antibody)
chain 1: not shown
chain 2: EVQLVESGGGLVQPGGSLRLSCAASGFTFSYYYIHWVRQAPGKGLEWVAWIDPYGHSTTYADSVKGRFTISADTSKNTAYLQMNSLRAEDTAVYYCARGGRGAMDYWGQGTLVTVSSASPREPQVYTLPPCRDELTKNQVSLTCLVKGFYPSDIAVEWESNGQPENNYKTTPPVLDSDGSFFLYSKLTVDKSRWQQGNVFSCSVMHEALHNHYTQKSLSLSPGK
chain 3: DIQMTQSPSSLSASVGDRVTITCRASQSVSSAVAWYQQKPGKAPKLLIYSASSLYSGVPSRFSGSRSGTDFTLTISSLQPEDFATYYCQQFGAEPITFGQGTKVEIKRTVAAPSVFIFPPSDEQLKSGTASVVCLLNNFYPREAKVQWKVDNALQSGNSQESVTEQDSKDSTYSLSSTLTLSKADYEKHKVYACEVTHQGLSSPVTKSFNRGECDKTHTCPPCPAPELLGGPSVFLFPPKPKDTLMISRTPEVTCVVVDVSHEDPEVKFNWYVDGVEVHNAKTKPREEQYNSTYRVVSVLTVLHQDWLNGKEYKCKVSNKALPAPIEKTISKAKGQPREPQVCTLPPSREEMTKNQVSLSCAVKGFYPSDIAVEWESNGQPENNYKTTPPVLDSDGSFFLVSKLTVDKSRWQQGNVFSCSVMHEALHNHYTQKSLSLSPGK
chain 4: EVQLVESGGGLVQPGGSLRLSCAASGFTFSSYYIHWVRQAPGKGLEWVATISSGGGFTYYADSVKGRFTISADTSKNTAYLQMNSLRAEDTAVYYCARGYTLTPVLDYWGQGTLVTVSSASTKGPSVFPLAPSSKSTSGGTAALGCLVKDYFPEPVTVSWNSGALTSGVHTFPAVLQSSGLYSLSSVVTVPSSSLGTQTYICNVNHKPSNTKVDKKVEPPKSC
notes: B-Body of four polypeptide chains, BC44 format; CD47 arm from C40, PD-L1 arm from P31.2; also called C40 × P31.2
B4: C40 x P31.2 bispecific antibody in a BC1 format (bispecific antibody)
chain 1: not shown
chain 2: EVQLVESGGGLVQPGGSLRLSCAASGFTFSYYYIHWVRQAPGKGLEWVAWIDPYGHSTTYADSVKGRFTISADTSKNTAYLQMNSLRAEDTAVYYCARGGRGAMDYWGQGTLVTVSSASPREPQVYTDPPSRDELTKNQVSLTCLVKGFYPSDIAVEWESNGQPENNYKTTPPVLDSDGSFFLYSKLTVDKSRWQQGNVFSCSVMHEALHNHYTQKSLSLSGEC
chain 3: DIQMTQSPSSLSASVGDRVTITCRASQSVSSAVAWYQQKPGKAPKLLIYSASSLYSGVPSRFSGSRSGTDFTLTISSLQPEDFATYYCQQFGAEPITFGQGTKVEIKRTVAAPSVFIFPPSDEQLKSGTASVVCLLNNFYPREAKVQWKVDNALQSGNSQESVTEQDSKDSTYSLSSTLTLSKADYEKHKVYACEVTHQGLSSPVTKSFNRGECDKTHTCPPCPAPELLGGPSVFLFPPKPKDTLMISRTPEVTCVVVDVSHEDPEVKFNWYVDGVEVHNAKTKPREEQYNSTYRVVSVLTVLHQDWLNGKEYKCKVSNKALPAPIEKTISKAKGQPREPQVCTLPPSREEMTKNQVSLSCAVKGFYPSDIAVEWESNGQPENNYKTTPPVLDSDGSFFLVSKLTVDKSRWQQGNVFSCSVMHEALHNHYTQKSLSLSPGK
chain 4: EVQLVESGGGLVQPGGSLRLSCAASGFTFSSYYIHWVRQAPGKGLEWVATISSGGGFTYYADSVKGRFTISADTSKNTAYLQMNSLRAEDTAVYYCARGYTLTPVLDYWGQGTLVTVSSASTKGPSVFPLAPSSKSTSGGTAALGCLVKDYFPEPVTVSWNSGALTSGVHTFPAVLQSSGLYSLSSVVTVPSSSLGTQTYICNVNHKPSNTKVDKKVEPPKSC
notes: B-Body of four polypeptide chains, BC1 format; CD47 arm from C40, PD-L1 arm from P31.2; also called C40 × P31.2
B5: C59 x P22 bispecific antibody in a BC1 format (bispecific antibody)
chain 1: not shown
chain 2: EVQLVESGGGLVQPGGSLRLSCAASGFTFTSYYIHWVRQAPGKGLEWVAYIDSKHGTTQYADSVKGRFTISADTSKNTAYLQMNSLRAEDTAVYYCARGGRSAMDYWGQGTLVTVSSASPREPQVYTDPPSRDELTKNQVSLTCLVKGFYPSDIAVEWESNGQPENNYKTTPPVLDSDGSFFLYSKLTVDKSRWQQGNVFSCSVMHEALHNHYTQKSLSLSGEC
chain 3: DIQMTQSPSSLSASVGDRVTITCRASQSVSSAVAWYQQKPGKAPKLLIYSASSLYSGVPSRFSGSRSGTDFTLTISSLQPEDFATYYCQQYYTSPYTFGQGTKVEIKRTVAAPSVFIFPPSDEQLKSGTASVVCLLNNFYPREAKVQWKVDNALQSGNSQESVTEQDSKDSTYSLSSTLTLSKADYEKHKVYACEVTHQGLSSPVTKSFNRGECDKTHTCPPCPAPELLGGPSVFLFPPKPKDTLMISRTPEVTCVVVDVSHEDPEVKFNWYVDGVEVHNAKTKPREEQYNSTYRVVSVLTVLHQDWLNGKEYKCKVSNKALPAPIEKTISKAKGQPREPQVCTLPPSREEMTKNQVSLSCAVKGFYPSDIAVEWESNGQPENNYKTTPPVLDSDGSFFLVSKLTVDKSRWQQGNVFSCSVMHEALHNHYTQKSLSLSPGK
chain 4: EVQLVESGGGLVQPGGSLRLSCAASGFTFSSYYIHWVRQAPGKGLEWVAWITSHGYSTKYADSVKGRFTISADTSKNTAYLQMNSLRAEDTAVYYCARDSVIYGLDYWGQGTLVTVSSASTKGPSVFPLAPSSKSTSGGTAALGCLVKDYFPEPVTVSWNSGALTSGVHTFPAVLQSSGLYSLSSVVTVPSSSLGTQTYICNVNHKPSNTKVDKKVEPPKSC
notes: B-Body of four polypeptide chains, BC1 format; CD47 arm from C59, PD-L1 arm from P22; also called C59 × P22
B6: C59 x P22 bispecific antibody in a BC44 format (bispecific antibody)
chain 1: not shown
chain 2: EVQLVESGGGLVQPGGSLRLSCAASGFTFTSYYIHWVRQAPGKGLEWVAYIDSKHGTTQYADSVKGRFTISADTSKNTAYLQMNSLRAEDTAVYYCARGGRSAMDYWGQGTLVTVSSASPREPQVYTLPPCRDELTKNQVSLTCLVKGFYPSDIAVEWESNGQPENNYKTTPPVLDSDGSFFLYSKLTVDKSRWQQGNVFSCSVMHEALHNHYTQKSLSLSPGK
chain 3: DIQMTQSPSSLSASVGDRVTITCRASQSVSSAVAWYQQKPGKAPKLLIYSASSLYSGVPSRFSGSRSGTDFTLTISSLQPEDFATYYCQQYYTSPYTFGQGTKVEIKRTVAAPSVFIFPPSDEQLKSGTASVVCLLNNFYPREAKVQWKVDNALQSGNSQESVTEQDSKDSTYSLSSTLTLSKADYEKHKVYACEVTHQGLSSPVTKSFNRGECDKTHTCPPCPAPELLGGPSVFLFPPKPKDTLMISRTPEVTCVVVDVSHEDPEVKFNWYVDGVEVHNAKTKPREEQYNSTYRVVSVLTVLHQDWLNGKEYKCKVSNKALPAPIEKTISKAKGQPREPQVCTLPPSREEMTKNQVSLSCAVKGFYPSDIAVEWESNGQPENNYKTTPPVLDSDGSFFLVSKLTVDKSRWQQGNVFSCSVMHEALHNHYTQKSLSLSPGK
chain 4: EVQLVESGGGLVQPGGSLRLSCAASGFTFSSYYIHWVRQAPGKGLEWVAWITSHGYSTKYADSVKGRFTISADTSKNTAYLQMNSLRAEDTAVYYCARDSVIYGLDYWGQGTLVTVSSASTKGPSVFPLAPSSKSTSGGTAALGCLVKDYFPEPVTVSWNSGALTSGVHTFPAVLQSSGLYSLSSVVTVPSSSLGTQTYICNVNHKPSNTKVDKKVEPPKSC
notes: B-Body of four polypeptide chains, BC44 format; CD47 arm from C59, PD-L1 arm from P22; also called C59 × P22

Columns and labels:
[1] = molecular target: T1, CD47 and PD-L1 together on the surface of the same cells (CD47 PD-L1 TCA CHO cells); PD-L1 MDA-MB-231 cells; … (Homo sapiens (Human), UniProt Q08722 19-323; Q9NZQ7 19-290); test: flow cytometry on CD47 PD-L1 TCA CHO cells (both targets on the cells); BC1 format
[2] = molecular target: T1, CD47 and PD-L1 together on the surface …; test: flow cytometry on PD-L1 MDA-MB-231 cells (both targets on the cells); BC44 format
[3] = molecular target: CD47 on cells (target cells of the assays) (Homo sapiens (Human), UniProt Q08722 19-323); test: cell-based or functional assay
[4] = molecular target: PD-L1 on cells (target cells of the assays) (Homo sapiens (Human), UniProt Q9NZQ7 19-290); test: cell-based or functional assay
[5] = molecular target: T1, CD47 and PD-L1 together on the surface …; test: flow cytometry on Jeko-PD-L1 cells (both targets on the cells); BC44 format

PD-L1 on cells (target cells of the assays), sequence (Q9NZQ7 19-290 limits assumed): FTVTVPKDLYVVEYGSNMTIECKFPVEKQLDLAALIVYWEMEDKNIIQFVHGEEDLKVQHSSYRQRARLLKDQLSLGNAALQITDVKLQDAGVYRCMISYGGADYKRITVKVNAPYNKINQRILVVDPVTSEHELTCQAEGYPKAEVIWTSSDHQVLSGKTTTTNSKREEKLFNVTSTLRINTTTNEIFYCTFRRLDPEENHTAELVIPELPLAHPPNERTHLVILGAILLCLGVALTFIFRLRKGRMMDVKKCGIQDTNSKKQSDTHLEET

| Binder | EC50 [1] | EC50 [2] | IC50, CD47/SIRPα Inhibition Assay in PD-L1 MDA-MB-231 Cells [3] | IC50, PD-1/PD-L1 Inhibition Assay in Jeko-PD-L1 Cells [4] | IC50, PD-1/PD-L1 Inhibition Assay in MDA-MB-231 PD-L1 Cells [4] | EC50 [5] |
| --- | --- | --- | --- | --- | --- | --- |
| B1 | 1.3 nM | – | – | – | – | – |
| B2 | 1.1 nM | – | – | – | – | – |
| B3 | – | 0.69 nM | 0.108 nM | 0.0115 nM | 1.5 nM | 0.227 nM |
| B4 | 0.13 nM | – | – | – | – | – |
| B5 | 2.3 nM | – | – | – | – | – |
| B6 | – | 1.5 nM | 0.35 nM | 0.0481 nM | 2.5 nM | – |
